# Experimental data: article PMC4372403, “Glycosylation of Phenolic Compounds by the Site-Mutated β-Galactosidase from Lactobacillus bulgaricus L3” (PLoS ONE, 2015)
# Substitutions are numbered along the chain they refer to. In names and notes the source's numbering stands.
# B1: BgaL3 (β-galactosidase from Lactobacillus bulgaricus L3) (Lactobacillus delbrueckii subsp. bulgaricus) (protein)
# chain: MSNKLVKEKRVDQADLAWLTDPEVYEVNTIPPHSDHESFQSQEELEEGKSSLVQSLDGDWLIDYAENGQGPVNFYAEDFDDSNFKSVKVPGNLELQGFGQPQYVNVQYPWDGSEEIFPPQIPSKNPLASYVRYFDLDEAFWDKEVSLKFDGAATAIYVWLNGHFVGYGEDSFTPSEFMVTKFLKKENNRLAVALYKYSSASWLEDQDFWRMSGLFRSVTLQAKPRLHLEDLKLTASLTDNYQKGKLEVEANIAYRLPNASFKLEVRDSEGDLVAEKLGPIRSEQLEFTLADLPVAAWSAEKPNLYQVRLYLYQAGSLLEVSRQEVGFRNFELKDGIMYLNGQRIVFKGANRHEFDSKLGRAITEEDMIWDIKTMKRSNINAVRCSHYPNQSLFYRLCDKYGLYVIDEANLESHGTWEKVGGHEDPSFNVPGDDQHWLGASLSRVKNMMARDKNHASILIWSLGNESYAGTVFAQMADYVRKADPTRVQHYEGVTHNRKFDDATQIESRMYVPAKVIEEYLTNKPAKPFISVEYAHAMGNSVGDLAAYTALEKYPHYQGGFIWDWIDQGLEKDGHLLYGGDFDDRPTDYEFCGNGLVFADRTESPKLANVKALYANLKLEVKDGQLFLKNDNLFTNSSSYYFLTSLLVDGKLTYQSRPLTFGLEPGESGTFALPWPEVADEKGEVVYRVTAHLKEDLPWADEGFTVAEAEEVAQKLPEFKPEGRPDLVDSDYNLGLKGNNFQILFSKVKGWPVSLKYAGREYLKRLPEFTFWRALTDNDRGAGYGYDLARWENAGKYARLKDISCEVKEDSVLVKTAFTLPVALKGDLTVTYEVDGRGKIAVTADFPGAEEAGLLPAFGLNLALPKELTDYRYYGLGPNESYPDRLEGNYLGIYQGAVKKNFSPYLRPQETGNRSKVRWYQLFDEKGGLEFTANGADLNLSALPYSAAQIEAADHAFELTNNYTWVRALSAQMGVGGDDSWGQKVHPEFCLDAQKARQLRLVIQPLLLK
# B2: BgaL3 (β-galactosidase from Lactobacillus bulgaricus L3) (Lactobacillus delbrueckii subsp. bulgaricus; W980F) (protein)
# chain: B1 chain with W980F
# Substrate: O=[N+]([O-])c1ccccc1O[C@@H]1O[C@H](CO)[C@H](O)[C@H](O)[C@H]1O
# Assay: purified protein
# Assay type: biochemical, Lactobacillus delbrueckii
# Details: 37°C, 10 min, oNPGal 0.5 to 50 mM, hydrolysis
Protein,Km,Vmax,kcat,kcat/Km
B1,1.38 mM,6530 µmol/min/mg,12500 s⁻¹,9.06e+06 M⁻¹ s⁻¹
B2,6.40 mM,640 µmol/min/mg,1240 s⁻¹,194000 M⁻¹ s⁻¹
